# Where a chain is given by its changes, count along the chain named.
# B1: Native FGF21 (ligand)
# chain: HPIPDSSPLLQFGGQVRQRYLYTDDAQQTEAHLEIREDGTVGGAADQSPESLLQLKALKPGVIQILGVKTSRFLCQRPDGALYGSLHFDPEACSFRELLLEDGYNVYQSEAHGLPLHLPGNKSPHRDPAPRGPARFLPLPGLPPALPEPPGILAPQPPDVGSSDPLSMVGPSQGRSPSYAS
# B2: Compound 39 (ligand)
# chain: HGEGTFTSDVSSYLEEQAAREFIAWLVRGGGGGGGSGGGGSGGGGSGGGGSGGGGSGGGGSGGGGSGGGGKHPIPDSSPLLQFGGQVRQRYLYTDDAQQTEAHLEIREDGTVGGAADQSPESLLQLRALRPGVIQILGVRTSRFLCQRPDGALYGSLHFDPEACSFRELLLEDGYNVYQSEAHGLPLHLPGQRSPHRDPAPRGPARFLPLPGLPPALPEPPGILAPQPPDVGSSDPLSLVGKSQGRSPSYES
# modifications: Moiety A (HOOC-(CH2)16-CO-gGlu-2XADO) on 71K and 242K of fusion polypeptide
# B3: Compound 9 (ligand)
# chain: HGEGTFTSDVSSYLEEQAAREFIAWLVRGGGGGGGSGGGGSGGGGSGGGGSHPIPDSSPLLQFGGQVRQRYLYTDDAQQTEAHLEIREDGTVGGAADQSPESLLQLRALRPGVIQILGVRTSRFLCQRPDGALYGSLHFDPEACSFRELLLEDGYNVYQSEAHGLPLHLPGQRSPHRDPAPRGPARFLPLPGLPPALPEPPGILAPQPPDVGSSDPLSLVGGSQGRSPSYKS
# modifications: Moiety A (HOOC-(CH2)16-CO-gGlu-2XADO) on 231K of fusion polypeptide
# B4: Compound 19 (ligand)
# chain: B3 chain with S51K, G222K, K231E
# modifications: Moiety A (HOOC-(CH2)16-CO-gGlu-2XADO) on 51K and 222K of fusion polypeptide
# B5: Compound 52 (ligand)
# chain: B3 chain with R20K, S51C, R107K, R110K, R120K, R173K, G225C, K231E
# modifications: Moiety B (HOOC-(CH2)20-CO-gGlu-2XADO-EDA-CO-CH2) on 51C and 225C of fusion polypeptide
# B6: Compound 15 (ligand)
# chain: B3 chain with G222P
# modifications: Moiety A (HOOC-(CH2)16-CO-gGlu-2XADO) on 231K of fusion polypeptide
# B7: Compound 2 (ligand)
# chain: B3 chain with R20K
# modifications: Moiety A (HOOC-(CH2)16-CO-gGlu-2XADO) on 20K and 231K of fusion polypeptide
# B8: Compound 10 (ligand)
# chain: B3 chain with G222K, K231E
# modifications: Moiety A (HOOC-(CH2)16-CO-gGlu-2XADO) on 222K of fusion polypeptide
# B9: Compound 12 (ligand)
# chain: B3 chain with G225K, K231E
# modifications: Moiety A (HOOC-(CH2)16-CO-gGlu-2XADO) on 225K of fusion polypeptide
# B10: Compound 20 (ligand)
# chain: B3 chain with S51K, G221K, G222P, K231E
# modifications: Moiety A (HOOC-(CH2)16-CO-gGlu-2XADO) on 51K and 221K of fusion polypeptide
# B11: Compound 11 (ligand)
# chain: B3 chain with G221K, G222P, K231E
# modifications: Moiety A (HOOC-(CH2)16-CO-gGlu-2XADO) on 221K of fusion polypeptide
# B12: Compound 51 (ligand)
# chain: B3 chain with R20K, S51C, R107K, R110K, R120K, R173K, G222C, K231E
# modifications: Moiety B (HOOC-(CH2)20-CO-gGlu-2XADO-EDA-CO-CH2) on 51C and 222C of fusion polypeptide
# B13: Compound 21 (ligand)
# chain: B3 chain with S51K, G225K, K231E
# modifications: Moiety A (HOOC-(CH2)16-CO-gGlu-2XADO) on 51K and 225K of fusion polypeptide
# B14: Compound 13 (ligand)
# chain: HGEGTFTSDVSSYLEEQAAREFIAWLVRGGGGAQPGAQPGAQPGAQPGAQPHPIPDSSPLLQFGGQVRQRYLYTDDAQQTEAHLEIREDGTVGGAADQSPESLLQLRALRPGVIQILGVRTSRFLCQRPDGALYGSLHFDPEACSFRELLLEDGYNVYQSEAHGLPLHLPGQRSPHRDPAPRGPARFLPLPGLPPALPEPPGILAPQPPDVGSSDPLSLVGKSQGRSPSYES
# modifications: Moiety A (HOOC-(CH2)16-CO-gGlu-2XADO) on 222K of fusion polypeptide
# B15: Compound 48 (ligand)
# chain: B14 chain with P51K
# modifications: Moiety A (HOOC-(CH2)16-CO-gGlu-2XADO) on 51K and 222K of fusion polypeptide
# B16: Compound 14 (ligand)
# chain: B14 chain with A33Q, Q34E, A37Q, Q38E, A41Q, Q42E, A45Q, Q46E, A49Q, Q50E
# modifications: Moiety A (HOOC-(CH2)16-CO-gGlu-2XADO) on 222K of fusion polypeptide
# B17: Compound 50 (ligand)
# chain: HGEGTFTSDVSSYLEEQAAREFIAWLVRGGGGGGGSGGGGSGGGGSGGGGKHPIPDSSPLLQFGGQVRQRYLYTDDAQQTEAHLEIREDGTVGGAADQSPESLLQLRALRPGVIQILGVRTSRFLCQRPDGALYGSLHFDPEACSFRELLLEDGYNVYQSEAHGLPLHLPGQRSPHRDPAPRGPARFLPLPGLPPALPEPPGILAPQPPDVGSSDPLSLVGGSQGRSPSYESK
# modifications: Moiety A (HOOC-(CH2)16-CO-gGlu-2XADO) on 51K and 233K of fusion polypeptide
# B18: Compound 22 (ligand)
# chain: HGEGTFTSDVSSYLEEQAAREFIAWLVRGGGGGGGSGGGGSGGGGSGGGGKHPIPDSSPLLQFGGQVRQRYLYTDDAQQTEAHLEIREDGTVGGAADQSPESLLQLRALRPGVIQILGVRTSRFLCQRPDGALYGSLHFDPEACSFRELLLEDGYNVYQSEAHGLPLHLPGQRSPHRDPAPRGPARFLPLPGLPPALPEPPGILAPQPPDVGSSDPLSLVGGSQGRSPSYK
# modifications: Moiety A (HOOC-(CH2)16-CO-gGlu-2XADO) on 51K and 231K of fusion polypeptide
# B19: Compound 42 (ligand)
# chain: HGEGTFTSDVSSYLEEQAAREFIAWLVRGGGGAQPGAQPGAQPGAQPGAQPGAQPGAQPGAQPGAQPGAQKHPIPDSSPLLQFGGQVRQRYLYTDDAQQTEAHLEIREDGTVGGAADQSPESLLQLRALRPGVIQILGVRTSRFLCQRPDGALYGSLHFDPEACSFRELLLEDGYNVYQSEAHGLPLHLPGQRSPHRDPAPRGPARFLPLPGLPPALPEPPGILAPQPPDVGSSDPLSLVGKSQGRSPSYES
# modifications: Moiety A (HOOC-(CH2)16-CO-gGlu-2XADO) on 71K and 242K of fusion polypeptide
# B20: Compound 40 (ligand)
# chain: HGEGTFTSDVSSYLEEQAAREFIAWLVRGGGGAQPGAQPGAQPGAQPGAQPGAQPGAQPGAQPGAQPGAQPGAQPGAQPGAQPGAQPGAQPGAQPGAQPGAQPGAQPGAQKHPIPDSSPLLQFGGQVRQRYLYTDDAQQTEAHLEIREDGTVGGAADQSPESLLQLRALRPGVIQILGVRTSRFLCQRPDGALYGSLHFDPEACSFRELLLEDGYNVYQSEAHGLPLHLPGQRSPHRDPAPRGPARFLPLPGLPPALPEPPGILAPQPPDVGSSDPLSLVGKSQGRSPSYES
# modifications: Moiety A (HOOC-(CH2)16-CO-gGlu-2XADO) on 111K and 282K of fusion polypeptide
# Target: T1, human beta-Klotho (human, UniProt Q86Z14 1-1044)
# T1 sequence (looked up): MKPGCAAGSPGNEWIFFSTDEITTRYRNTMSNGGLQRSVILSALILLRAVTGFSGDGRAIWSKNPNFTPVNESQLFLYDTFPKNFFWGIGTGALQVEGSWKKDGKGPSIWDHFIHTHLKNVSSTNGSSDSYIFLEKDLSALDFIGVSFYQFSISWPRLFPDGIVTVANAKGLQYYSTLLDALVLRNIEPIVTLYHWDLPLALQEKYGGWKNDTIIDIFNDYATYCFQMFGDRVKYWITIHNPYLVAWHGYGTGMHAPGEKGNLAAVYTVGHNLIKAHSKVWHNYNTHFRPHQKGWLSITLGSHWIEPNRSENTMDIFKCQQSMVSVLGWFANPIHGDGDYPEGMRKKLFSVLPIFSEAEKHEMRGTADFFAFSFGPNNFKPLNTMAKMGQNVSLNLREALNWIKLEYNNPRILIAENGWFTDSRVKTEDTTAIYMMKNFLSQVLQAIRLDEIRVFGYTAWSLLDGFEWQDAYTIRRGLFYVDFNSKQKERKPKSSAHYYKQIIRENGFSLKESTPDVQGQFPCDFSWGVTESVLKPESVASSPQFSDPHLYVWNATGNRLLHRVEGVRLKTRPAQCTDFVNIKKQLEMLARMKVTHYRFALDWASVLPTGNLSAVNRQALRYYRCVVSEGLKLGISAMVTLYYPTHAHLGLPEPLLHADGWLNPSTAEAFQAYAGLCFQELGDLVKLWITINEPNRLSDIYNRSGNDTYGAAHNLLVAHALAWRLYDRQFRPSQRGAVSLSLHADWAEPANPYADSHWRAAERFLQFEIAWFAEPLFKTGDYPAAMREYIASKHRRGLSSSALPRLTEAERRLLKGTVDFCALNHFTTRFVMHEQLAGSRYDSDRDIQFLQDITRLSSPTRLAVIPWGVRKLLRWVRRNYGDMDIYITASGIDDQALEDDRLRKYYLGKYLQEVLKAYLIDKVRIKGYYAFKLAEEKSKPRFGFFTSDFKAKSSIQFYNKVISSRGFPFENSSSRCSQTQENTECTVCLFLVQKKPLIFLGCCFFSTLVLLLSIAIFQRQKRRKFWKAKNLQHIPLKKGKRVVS
# Experiment: cell-based or functional assay
row,Binder,"FGF21 activity (EC50, nM); p-ERK levels [nM]"
1,B1,10.6
2,B2,4.2
3,B3,4.9
4,B4,13.6
5,B5,2.4
6,B6,7.3
7,B7,5.5
8,B8,4.5
9,B9,4.1
10,B10,10.6
11,B11,3.9
12,B12,4.3
13,B13,17.6
14,B14,9.1
15,B15,20.4
16,B16,19
17,B17,8.7
18,B18,7
19,B19,8.4
20,B20,8

# Target: human GLP-1 receptor (human, UniProt P43220 24-463)
# Experiment: cell-based or functional assay
row,Binder,"GLP-1 activity (EC50, pM); CRE luciferase reporter [pM]"
1,B2,12.6
2,B3,19.9
3,B4,20.3
4,B5,30.2
5,B6,16.8
6,B7,46.6
7,B8,17.6
8,B9,17
9,B10,39.1
10,B11,18.2
11,B12,30.7
12,B13,36.8
13,B14,19.6
14,B15,14.4
15,B16,33.2
16,B17,15.4
17,B18,50.4
